In FireProtDB (doi:10.1021/bi0357412):

B1: Phosphocarrier protein HPr, P08877 (parent)
chain: MAQKTFKVTADSGIHARPATVLVQTASKYDADVNLEYNGKTVNLKSIMGVMSLGIAKGAEITISASGADENDALNALEETMKSEGLGE

Variants of: B1
Conditions: Bacillus subtilis (strain 168); pH 7; 25 °C; GdnHCl; CD; Potassium phosphate 10 mM; reversible: yes; structure 1SPH; whole UniProt chain shown

Row | Variant | ddG of mutation (higher = less stable) [kcal/mol] | denaturant m value [kcal/mol/M] | denaturant midpoint (higher = more stable) [M] | unfolding free energy [kcal/mol]
1 | D69A G49E | -0.6 | 2.4 | 1.8 | 4.3

Same assay, conditions: Bacillus subtilis (strain 168); pH 7; 25 °C; Thermal; CD; Sodium phosphate 50 mM; reversible: yes; structure 1SPH; whole UniProt chain shown

Row | Variant | ddG of mutation (higher = less stable) [kcal/mol] | unfolding free energy [kcal/mol]
2 | D69A G49E | 0.7 | 4.4

Same assay, conditions: Bacillus subtilis (strain 168); pH 7; 25 °C; Urea; CD; Sodium phosphate 50 mM; reversible: yes; structure 1SPH; whole UniProt chain shown

Row | Variant | ddG of mutation (higher = less stable) [kcal/mol] | denaturant m value [kcal/mol/M] | denaturant midpoint (higher = more stable) [M] | unfolding free energy [kcal/mol]
3 | D69A G49E | 0.7 | 1.1 | 3.9 | 4.2

Same assay, conditions: Bacillus subtilis (strain 168); pH 7; Thermal; DSC; Potassium phosphate 10 mM; reversible: yes; structure 1SPH; whole UniProt chain shown

Row | Variant | Tm [°C] | change of melting temperature, mutant - wild type (higher = more stable) [°C] | unfolding enthalpy (calorimetric) [kcal/mol]
4 | D69A G49E | 70 | -4.9 | 71.5
